The text below walks through data of paper PMC12449476, “Transient ligand contacts of the intrinsically disordered N-terminus of neuropeptide Y2 receptor regulate arrestin-3 recruitment” (Nature Communications, 2025).

Values joined by “and” are separate entries in the source; they are usually repeats but may differ in a detail not shown here. Identical values can stand only once.

The target in assay [1] is Nluc-Y2R-eYFP D42A-S43A-T44A (human) (UniProt P49146). As to the kind of experiment: FRET or BRET; NanoBRET equilibrium binding: dilution series of K18-Tamra-NPY on HEK293 membranes with Nluc-Y2R-eYFP variants, HBSS, 20 mM HEPES pH 7.4, 0.1% BSA, 10 min at room temperature; unspecific binding with 100 µM JNJ-31020028; biphasic fit (high- and low-affinity state). For orientation: BRET reads energy transfer from a luciferase to a nearby fluorophore.
Nluc-Y2R-eYFP D42A-S43A-T44A (human), sequence (P49146 whole entry D42A/S43A/T44A): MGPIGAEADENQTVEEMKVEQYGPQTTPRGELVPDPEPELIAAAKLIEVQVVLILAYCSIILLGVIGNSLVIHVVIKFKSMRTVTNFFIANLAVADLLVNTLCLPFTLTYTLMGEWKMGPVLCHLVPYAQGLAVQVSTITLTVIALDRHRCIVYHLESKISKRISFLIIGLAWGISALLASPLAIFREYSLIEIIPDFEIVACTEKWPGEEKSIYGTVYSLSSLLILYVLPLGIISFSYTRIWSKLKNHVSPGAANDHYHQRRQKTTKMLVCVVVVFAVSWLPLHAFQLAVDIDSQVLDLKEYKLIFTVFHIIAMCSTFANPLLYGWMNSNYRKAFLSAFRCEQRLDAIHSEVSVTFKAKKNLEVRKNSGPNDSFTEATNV

For assay [2], the target named is Nluc-Y2R-eYFP Δ2–41 (human) (UniProt P49146). The assay is described as above.
Nluc-Y2R-eYFP Δ2–41 (human), sequence (P49146 other isoform, or with tags, fused parts or gaps): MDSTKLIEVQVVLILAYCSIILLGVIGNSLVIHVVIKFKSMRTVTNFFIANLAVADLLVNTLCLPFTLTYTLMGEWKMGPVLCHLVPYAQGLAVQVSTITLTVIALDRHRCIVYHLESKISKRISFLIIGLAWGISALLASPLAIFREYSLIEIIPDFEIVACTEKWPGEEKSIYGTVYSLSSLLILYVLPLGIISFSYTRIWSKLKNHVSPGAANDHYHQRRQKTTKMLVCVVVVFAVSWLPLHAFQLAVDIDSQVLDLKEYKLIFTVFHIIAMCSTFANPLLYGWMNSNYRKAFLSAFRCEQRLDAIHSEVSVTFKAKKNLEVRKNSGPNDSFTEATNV
The target in assay [3] is Δ2–41 variant or charge reversal in the acidic patches (Nluc-Y2R-eYFP variants, ligand dissociation). As to the kind of experiment: FRET or BRET; NanoBRET ligand dissociation from the low-affinity state: membranes pre-incubated with 300 nM K18-Tamra-NPY for 10 min, re-binding blocked by 50 µM JNJ-31020028, BRET decay for 20 min, one-phase dissociation fit.
Assay [4] concerns the target Y2R-eYFP D35–E39K (human) (UniProt P49146). As to the kind of experiment: FRET or BRET; BRET between Nluc-arrestin-3 and Y2R-eYFP variants in live HEK293 cells, concentration-response to NPY, read 10 min after stimulation at 37 °C.
Assay [5] deals with Tetramethylrhodamine-NPY (Tamra-NPY) (porcine). Kind of assay: fluorescence polarisation; fixed 50 nM Tamra-NPY, titrated with Y2R-loaded bicelles (x axis: log c, bicelles / M); empty bicelles as control. (In general: Fluorescence polarisation rises when a labelled molecule tumbles more slowly, as on binding a larger partner.)
Assay [6] addresses Neuropeptide Y (Homo sapiens) (UniProt P01303). To be noted: cited from earlier work.

lipid-reconstituted cysteine-deficient Y2R (Y2R-Δ6), sequence (P49146 whole entry, stated change not applied): as the sequence (P49146 whole entry D42A/S43A/T44A) above, with A42D, A43S, A44T counted along it
Neuropeptide Y receptor type 2, sequence (P49146 whole entry): as the sequence (P49146 whole entry D42A/S43A/T44A) above, with A42D, A43S, A44T counted along it
Y2R-eYFP D35–E39K (human), sequence (P49146 whole entry E39K): as the sequence (P49146 whole entry D42A/S43A/T44A) above, with E39K, A42D, A43S, A44T counted along it

Turning to K18-Tamra-NPY (peptide), the fold reduction of the affinity of the low-affinity state against wild-type Y2R in assay [1] stood at 3 fold. In assay [2], this substance gave a fold reduction of the low-affinity binding constant against wild-type Y2R of 2 fold. The fold increase of ligand dissociation (koff) against wild-type Y2R in assay [3] was 2 fold and 3 fold.

For “Nluc-arrestin-3 (from UniProt P32121 1-409) (natural protein)”, in assay [4], the BRETmax was determined as 49%.

Consider “lipid-reconstituted cysteine-deficient Y2R (Y2R-Δ6) (from UniProt P49146 1-381) (receptor)”, for which, in assay [5], the dissociation constant (Kd) (in general, the free concentration of one partner at which half of the binding sites on the other are occupied at equilibrium, for simple one-to-one binding) is 0.0445 µM.

Regarding “Neuropeptide Y receptor type 2 (from UniProt P49146)”, the Kd in assay [6] was 0.3 µM.
